Experiments:
purified protein [1] = substrate: OC[C@H]1O[C@H](O[C@H]2[C@H](O)[C@@H](CO)OC(O)[C@H]2O)[C@@H](O)[C@@H](O)[C@@H]1O; experiment: purified protein; format: biochemical, Streptococcus pyogenes; details: Zn2+
purified protein [2] = substrate: Cc1cc(=O)oc2cc(O[C@H]3O[C@H](CO)[C@@H](O)[C@H](O)[C@@H]3O)ccc12; experiment: purified protein; format: biochemical, Streptococcus pyogenes; details: Zn2+

B1: SpGH38 (Spy1604), family GH38 α-mannosidase (Streptococcus pyogenes serotype M1) (protein)
chain: MATKKVHIISHSHWDREWYMAYEQHHMRLINLIDDLLEVFQTDPDFHSFHLDGQTIILDDYLKVRPEREPEIRQAIASGKLRIGPFYILQDDFLTSSESNVRNMLIGKEDCDRWGASVPLGYFPDTFGNMGQTPQLMLKAGLQAAAFGRGIRPTGFNNQVDTSEKYSSQFSEISWQGPDNSRILGLLFANWYSNGNEIPTTEAEARLFWDKKLADAERFASTKHLLMMNGCDHQPVQLDVTKAIALANQLYPDYEFVHSCFEDYLADLADDLPENLSTVQGEITSQETDGWYTLANTASARIYLKQANTRVSRQLENITEPLAAMAYEVTSTYPHDQLRYAWKTLMQNHPHDSICGCSVDSVHREMMTRFEKAYEVGHYLAKEAAKQIADAIDTRDFPMDSQPFVLFNTSGHSKTSVAELSLTWKKYHFGQRFPKEVYQEAQEYLARLSQSFQIIDTSGQVRPEAEILGTSIAFDYDLPKRSFREPYFAIKVRLRLPITLPAMSWKTLALKLGNETTPSETVSLYDDSNQCLENGFLKVMIQTDGRLTITDKQSGLIYQDLLRFEDCGDIGNEYISRQPNHDQPFYADQGTIKLNIISNTAQVAELEIQQTFAIPISADKLLQAEMEAVIDITERQARRSQEKAELTLTTLIRMEKNNPRLQFTTRFDNQMTNHRLRVLFPTHLKTDHHLADSIFETVKRPNHPDATFWKNPSNPQHQECFVSLFDGENGVTIGNYGLNEYEILPDTNTIAITLLRSVGEMGDWGYFPTPEAQCLGKHSLSYSFESITKQTQFASYWRAQEGQVPVITTQTNQHEGTLAAEYSYLTGTNDQVALTAFKRRLADNALITRSYNLSNDKTCDFSLSLPNYNAKVTNLLEKDSKQSTPSQLGKAEILTLAWKKQ
notes: full length, residues 1-901, N-terminal His6-tag
- Km (purified protein [1]): 27 ± 0.75 mM
- Km (purified protein [2]): 3.6 ± 1.0 mM

From publication PMC2815779, “Structure and Kinetic Investigation of Streptococcus pyogenes Family GH38 α-Mannosidase” (PLoS ONE, 2010)
